T1: recombinant human vascular endothelial growth factor (hVEGF) 121 (human, UniProt P15692 27-147)
T1 construct: mature; also called human VEGF-A121; hVEGF 121 isoform
T1 sequence (looked up): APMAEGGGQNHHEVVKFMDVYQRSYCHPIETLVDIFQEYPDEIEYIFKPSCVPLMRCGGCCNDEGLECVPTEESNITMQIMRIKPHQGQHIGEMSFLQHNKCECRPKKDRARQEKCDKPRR


Assays:
[1] = biological target: T1, recombinant human vascular endothelial …; experiment: Fab-ELISA: Fab titrated on wells coated with 2 ug/mL hVEGF-121, detected with anti-kappa-light-chain-HRP
From the text: (§1) FIG. 4a-b. […] The bound Fabs were detected with anti-Kappa-light-chain-HRP-conjugated antibody (B).

[2] = biological target: T1, recombinant human vascular endothelial …; experiment: Fab-ELISA: Fab titrated on wells coated with 2 ug/mL hVEGF-121, detected with anti-kappa-light-chain-HRP; Kd estimated from EC50
From the text: as §1

[3] = biological target: T2, recombinant human VEGF 165 isoform (human, UniProt P15692 27-191); experiment: competitive ELISA in solution, 10 pM hVEGF-165, free VEGF read with Quantikine kit
T2 construct: mature
T2 sequence (P15692 other isoform, or with tags, fused parts or gaps): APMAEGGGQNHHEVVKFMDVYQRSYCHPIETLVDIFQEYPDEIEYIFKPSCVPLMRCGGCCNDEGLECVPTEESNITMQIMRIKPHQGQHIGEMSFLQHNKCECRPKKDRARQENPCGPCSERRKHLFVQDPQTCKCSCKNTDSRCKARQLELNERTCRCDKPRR
From the text: Kd calculated from the data fitted with a 5 parameter asymmetric model with Prism software.

[4] = biological target: T1, recombinant human vascular endothelial …; experiment: SPR, off rate of hVEGF-121 binding

Kd [3] [nM]	koff [4] [s⁻¹]	Binder	further results
–	–	FF0124-4 (Fab, V domains shown, also called FF0124-4 F2088) VH: EVQLVESGGGLVQPGGSLRLSCAASGFDLYSYSIHWVRQAPGKGLEWVASIYSYSGYTYYADSVKGRFTISADTSKNTAYLQMNSLRAEDTAVYYCARGGWYALDYWGQGTLVTVSS VL: DIQMTQSPSSLSASVGDRVTITCRASQSVSSAVAWYQQKPGKAPKLLIYSASSLYSGVPSRFSGSRSGTDFTLTISSLQPEDFATYYCQQGYGPFYSLITFGQGTKVEIK	EC50 (read off the curve) [1]: ~10 nM; Kd [2]: 11 nM
0.062	–	Variant 205 (Fab variant of Clone #201) (Fab, V domains shown) VH: EVQLVESGGGLVQPGGSLRLSCAASGFDLFHYSIHWVRQAPGKGLEWVAYIYPSYGYTYYADSVKGRFTISADTSKNTAYLQMNSLRAEDTAVYYCARHAWYYGWGLDYWGQGTLVTVSS VL: DIQMTQSPSSLSASVGDRVTITCRASQAAYGRVAWYQQKPGKAPKLLIYKDSELYAGVPSRFSGSRSGTDFTLTISSLQPEDFATYYCQQRGWYLFTFGQGTKVEIKR	–
–	0.000168	FF03033-5 (Fab, V domains shown, fifth generation Fab from the library based on FF0117-A5) VH: EVQLVESGGGLVQPGGSLRLSCAASGFDLFHYSIHWVRQAPGKGLEWVAYIYPSYGYTYYADSVKGRFTISADTSKNTAYLQMNSLRAEDTAVYYCARHAWYYGWGLDYWGQGTLVTVSS VL: DIQMTQSPSSLSASVGDRVTITCRASQGVGERVAWYQQKPGKAPKLLIYNASHLAGVPSRFSGSRSGTDFTLTISSLQPEDFATYYCQQRGWYLFTFGQGTKVEIK	–
0.028	–	Variant 209 (Fab variant of Clone #201) (Fab, V domains shown) VH: EVQLVESGGGLVQPGGSLRLSCAASGFDLFHYSIHWVRQAPGKGLEWVAYIYPSYGYTYYADSVKGRFTISADTSKNTAYLQMNSLRAEDTAVYYCARHAWYYGWGLDYWGQGTLVTVSS VL: DIQMTQSPSSLSASVGDRVTITCRASQDAAYGRVAWYQQKPGKAPKLLIYKASELYAGVPSRFSGSRSGTDFTLTISSLQPEDFATYYCQQRGWYLFTFGQGTKVEIKR	–
0.026	–	Variant 220 (Fab variant of Clone #201) (Fab, V domains shown) VH: EVQLVESGGGLVQPGGSLRLSCAASGFDLFHYSIHWVRQAPGKGLEWVAYIYPSYGYTYYADSVKGRFTISADTSKNTAYLQMNSLRAEDTAVYYCARHAWYYGWGLDYWGQGTLVTVSS VL: DIQMTQSPSSLSASVGDRVTITCRASQAAYGDVAWYQQKPGKAPKLLIYKASELYAGVPSRFSGSRSGTDFTLTISSLQPEDFATYYCQQRGWYLFTFGQGTKVEIKR	–
0.091	–	Variant 213 (Fab variant of Clone #201) (Fab, V domains shown) VH: EVQLVESGGGLVQPGGSLRLSCAASGFDLFHYDIHWVRQAPGKGLEWVAYIYPSYGYTYYADSVKGRFTISADTSKNTAYLQMNSLRAEDTAVYYCARHAWYYGWGLDYWGQGTLVTVSS VL: DIQMTQSPSSLSASVGDRVTITCRASQAAYGRVAWYQQKPGKAPKLLIYKASELYAGVPSRFSGSRSGTDFTLTISSLQPEDFATYYCQQRGWYLFTFGQGTKVEIKR	–
1.28	–	Variant 212 (Fab variant of Clone #201) (Fab, V domains shown) VH: EVQLVESGGGLVQPGGSLRLSCAASGFDLFHYSIDWVRQAPGKGLEWVAYIYPSYGYTYYADSVKGRFTISADTSKNTAYLQMNSLRAEDTAVYYCARHAWYYGWGLDYWGQGTLVTVSS VL: DIQMTQSPSSLSASVGDRVTITCRASQAAYGRVAWYQQKPGKAPKLLIYKASELYAGVPSRFSGSRSGTDFTLTISSLQPEDFATYYCQQRGWYLFTFGQGTKVEIKR	–
0.014	–	Variant 206 (Fab variant of Clone #201) (Fab, V domains shown, also called SI; No. 3) VH: EVQLVESGGGLVQPGGSLRLSCAASGFDLFHYSIHWVRQAPGKGLEWVAYIYPSYGYTYYADSVKGRFTISADTSKNTAYLQMNSLRAEDTAVYYCARHAWYYGWGLDYWGQGTLVTVSS VL: DIQMTQSPSSLSASVGDRVTITCRASQAAYGRVAWYQQKPGKAPKLLIYDASELYAGVPSRFSGSRSGTDFTLTISSLQPEDFATYYCQQRGWYLFTFGQGTKVEIKR	–
–	0.000284	FF03033-6 (Fab, V domains shown, fifth generation Fab from the library based on FF0117-A5) VH: EVQLVESGGGLVQPGGSLRLSCAASGFDLFHYSIHWVRQAPGKGLEWVAYIYPSYGYTYYADSVKGRFTISADTSKNTAYLQMNSLRAEDTAVYYCARHAWYYGWGLDYWGQGTLVTVSS VL: DIQMTQSPSSLSASVGDRVTITCRASQPREDRVAWYQQKPGKAPKLLIYRASTLAGVPSRFSGSRSGTDFTLTISSLQPEDFATYYCQQRGWYLFTFGQGTKVEIK	–
–	< 1e-06	FF03033-4 (Fab, V domains shown, fifth generation Fab with one residue deleted near the end of CDR-L2; the text says FF03046-1 was made from it by putting the tyrosine back) VH: EVQLVESGGGLVQPGGSLRLSCAASGFDLFHYSIHWVRQAPGKGLEWVAYIYPSYGYTYYADSVKGRFTISADTSKNTAYLQMNSLRAEDTAVYYCARHAWYYGWGLDYWGQGTLVTVSS VL: DIQMTQSPSSLSASVGDRVTITCRASQEGWDRVAWYQQKPGKAPKLLIYSASQLAGVPSRFSGSRSGTDFTLTISSLQPEDFATYYCQQRGWYLFTFGQGTKVEIK	–
–	0.000146	FF03033-3 (Fab, V domains shown, fifth generation Fab from the library based on FF0117-A5) VH: EVQLVESGGGLVQPGGSLRLSCAASGFDLFHYSIHWVRQAPGKGLEWVAYIYPSYGYTYYADSVKGRFTISADTSKNTAYLQMNSLRAEDTAVYYCARHAWYYGWGLDYWGQGTLVTVSS VL: DIQMTQSPSSLSASVGDRVTITCRASQFVGYNVAWYQQKPGKAPKLLIYQASSLAGVPSRFSGSRSGTDFTLTISSLQPEDFATYYCQQRGWYLFTFGQGTKVEIK	–
0.012	–	Variant 219 (Fab variant of Clone #201) (Fab, V domains shown, also called SI; No. 9) VH: EVQLVESGGGLVQPGGSLRLSCAASGFDLFHYSIHWVRQAPGKGLEWVAYIYPSYGYTYYADSVKGRFTISADTSKNTAYLQMNSLRAEDTAVYYCARHAWYYGWGLDYWGQGTLVTVSS VL: DIQMTQSPSSLSASVGDRVTITCRASQAAYDRVAWYQQKPGKAPKLLIYKASELYAGVPSRFSGSRSGTDFTLTISSLQPEDFATYYCQQRGWYLFTFGQGTKVEIKR	–
–	< 1e-06	FF03033-8 (Fab, V domains shown, fifth generation Fab with one residue deleted near the end of CDR-L2; the text says FF03046-2 was made from it by putting the tyrosine back) VH: EVQLVESGGGLVQPGGSLRLSCAASGFDLFHYSIHWVRQAPGKGLEWVAYIYPSYGYTYYADSVKGRFTISADTSKNTAYLQMNSLRAEDTAVYYCARHAWYYGWGLDYWGQGTLVTVSS VL: DIQMTQSPSSLSASVGDRVTITCRASQAAYGRVAWYQQKPGKAPKLLIYKASELAGVPSRFSGSRSGTDFTLTISSLQPEDFATYYCQQRGWYLFTFGQGTKVEIK	–
–	0.000236	FF03033-2 (Fab, V domains shown, fifth generation Fab from the library based on FF0117-A5) VH: EVQLVESGGGLVQPGGSLRLSCAASGFDLFHYSIHWVRQAPGKGLEWVAYIYPSYGYTYYADSVKGRFTISADTSKNTAYLQMNSLRAEDTAVYYCARHAWYYGWGLDYWGQGTLVTVSS VL: DIQMTQSPSSLSASVGDRVTITCRASQVAFYNVAWYQQKPGKAPKLLIYDASILNGVPSRFSGSRSGTDFTLTISSLQPEDFATYYCQQRGWYLFTFGQGTKVEIK	–
0.027	–	Variant 215 (Fab variant of Clone #201) (Fab, V domains shown) VH: EVQLVESGGGLVQPGGSLRLSCAASGFDLFDYSIHWVRQAPGKGLEWVAYIYPSYGYTYYADSVKGRFTISADTSKNTAYLQMNSLRAEDTAVYYCARHAWYYGWGLDYWGQGTLVTVSS VL: DIQMTQSPSSLSASVGDRVTITCRASQAAYGRVAWYQQKPGKAPKLLIYKASELYAGVPSRFSGSRSGTDFTLTISSLQPEDFATYYCQQRGWYLFTFGQGTKVEIKR	–
–	–	FF0124-7 (Fab, V domains shown, also called FF0124-7 F2116) VH: EVQLVESGGGLVQPGGSLRLSCAASGFDLYYSYMHWVRQAPGKGLEWVASISSYSGYTSYADSVKGRFTISADTSKNTAYLQMNSLRAEDTAVYYCARGFYYGGWYGIDYWGQGTLVTVSS VL: DIQMTQSPSSLSASVGDRVTITCRASQSVSSAVAWYQQKPGKAPKLLIYSASSLYSGVPSRFSGSRSGTDFTLTISSLQPEDFATYYCQQHYGPITFGQGTKVEIK	EC50 (read off the curve) [1]: ~30 nM; Kd [2]: 33 nM
–	–	FF0124-2 (Fab, V domains shown, seventh Fab of the naive library selection; also called FF0124-2 F2083; FF0124 Fab # 2) VH: EVQLVESGGGLVQPGGSLRLSCAASGFDLYYSSMHWVRQAPGKGLEWVASISPSSSYTYYADSVKGRFTISADTSKNTAYLQMNSLRAEDTAVYYCARYYWWHSPFWAYSGLDYWGQGTLVTVSS VL: DIQMTQSPSSLSASVGDRVTITCRASQSVSSAVAWYQQKPGKAPKLLIYSASSLYSGVPSRFSGSRSGTDFTLTISSLQPEDFATYYCQQSGPLFTFGQGTKVEIK	EC50 (read off the curve) [1]: ~50 nM; Kd [2]: 47 nM
–	–	FF0124-5 (Fab, V domains shown, also called FF0124-5 F2091) VH: EVQLVESGGGLVQPGGSLRLSCAASGFDISSYYMHWVRQAPGKGLEWVASIYSYSGYTYYADSVKGRFTISADTSKNTAYLQMNSLRAEDTAVYYCARHSVYYWYGSYWYYPSSAMDYWGQGTLVTVSS VL: DIQMTQSPSSLSASVGDRVTITCRASQSVSSAVAWYQQKPGKAPKLLIYSASSLYSGVPSRFSGSRSGTDFTLTISSLQPEDFATYYCQQFWAGYGLITFGQGTKVEIK	EC50 (read off the curve) [1]: ~20 nM; Kd [2]: 19 nM
–	–	FF0124-6 (Fab, V domains shown, also called FF0124-6 F2094) VH: EVQLVESGGGLVQPGGSLRLSCAASGFDIYYYSMHWVRQAPGKGLEWVASISSYSGYTSYADSVKGRFTISADTSKNTAYLQMNSLRAEDTAVYYCARYPYYYWAFDYWGQGTLVTVSS VL: DIQMTQSPSSLSASVGDRVTITCRASQSVSSAVAWYQQKPGKAPKLLIYSASSLYSGVPSRFSGSRSGTDFTLTISSLQPEDFATYYCQQSGHYHYPFTFGQGTKVEIK	EC50 (read off the curve) [1]: ~20 nM; Kd [2]: 25 nM

Source: US20220235123A1 (UNIVERSITY OF TORONTO, published 2022)
